Test results from the DeepSol protein solubility set.

Assay: soluble on expression in E. coli; label from the status in PepcDB or PDB records

Sequence	soluble on expression in E. coli
AIAYASETASTQGLPALELDPEELLAQVQLLRAAVEGSRRESRELVGALERERRLNLEMRQRFERQFAAVSDQLLQLNHLQKESEALLQSLQEQLNEAELQKNAAQRELACVQRQLSLARAEADAGKRVLTTIAEKEALLRKTSQANADLQQIVMHLQAELRNSELQPSTSNASEERLHEAEIPSLADRDAYQTLQQTIEKLSAERDMWYHECARAKEESLRLQQDAERLRGLLDEQQRVHTTTQTLLQDRHLLMRRIIAALAEKYLMEKLPNQHYTQEIDSSPFQARGGTSVQEAHKHERLRRARSF	soluble
MSLKILDISTEVKEIALKTPFITALRRVDAVEFVRVKVVCDDGSVAYGEAPATRAVTGEDIYSILSDIAFIQEELIGLTPKDAIVSLHLAEMGSSAKAALDMALFYLLPQTKEKQNLTLQTDITISLKDSDEMISDATQAIASGMNILKVKFGGDIKHAIEVTNRLSELDAKLIIDANQAWTQDDTMEYLEATLNVKLELIEQPVKADELHELRCITNYSHVPILADESVFTLEDAKAIIEYACADMINIKLMKCGGVTKAIEILEFARKNDIKCMLGSMLEGPISINAALNLAMEYSDVIAYIDLDSPLLYKEPSNELEFDFNGCEITRKEGHHHHHH	soluble
DSVIVVDNVPQVGPDRLEKLKNVIHKIFSKFGKITNDFYPEEDGKTKGYIFLEYASPAHAVDAVKNADGYKLDKQHTFRVN	soluble
MFNSKPLLTITLLAVSSVASAAEQALDAQQVAQLIEKADSYRLQDDSSKVVSLVRLYQDQELDKTRLYHVYTRPNRESLVVFKSAVEAGQKMLMMGDNYWLQMPKSRRPIRITPMQKLLGEASIGDISTLTWSQDYQGEWKATETLTINGQSIAAYRLALTAKTKGASYQKIDLWLSEQDAFPIKADLYLRSGKLAKQAQYGRATNLGKDYVSEMTLLDSIQPSKKTVIEYQEIVPWQLDNKFYNPSYLPKANTSEL	not soluble
MGSDKIHHHHHHMSSLQISQGTFRLSDTKTLKIDHLSVAAGESWAFVGSNGSGKSALARALAGDLPLLSGQRESHFSRVTRLSFEQLQKLVSDEWQRNNTDLLSPGEEDTGRTTAEIIQDEVKDPARCARLAEQFGISALLDRRFKYLSTGETRKTLLCQALMTDPQLLILDEPFDGLDVNSRQQLAALLADLHSAGITLVLVLNRFDEIPEFVQFAGVLADCTLSETGEKSSLLQQALVAQLAHSEKLDGITLPEPDVPPARHALADSAPRIVLNDGVVSYNDRPVINHLSWTVNPGEHWQIVGPNGAGKSTLLSLVTGDHPQGYSNDLTLFGRRRGSGETIWDIKKHIGYVSSSLHLDYRVSTNVRNVILSGYFDSIGIYQAVSDKQHKLVQQWLDILGIDKRTADAPFHSLSWGQQRLALIVRALVKHPTLLILDEPLQGLDPLNRQLVRRFVDVLIGEGATQLLFVSHHAEDAPDCITHRLAFVPSGDGYTYQLGPVA	not soluble
MGSDKIHHHHHHMGNEVYDAVVVGAGFAGLTAARELSRQGLAVHIVEARDRIGGRTWLDHRLGRDLEIGGTWVHWTQPHVWAELTRYGLETTPSPEPERAFWWADGCRHEGRPDELLGLIGQTNEEFVRDSRKYFPEPFRPMARDDFKSIDHVSVQARIREQFPAGAPRDILESFWALNFNGPLDNAALTQAFRWVALTNGDWAVNFEACATYKIVGGTAALAASMLADSGAGIQYGFKVEAVAEDADVVEIRSADGRTVRARTAIVTVPLHALNAVDFEPPLPAAKAEAASLGQVSKGAKVWFRLRGEHAPFVALGGADWPLNFFQVEYALDGDTIAVGFGPDAAKIEVEDPVAVQAQLARLVPGAEVVAVASHNWVDDPLSGETWPMHRTGFLSTHLPAMQASHGLVLFAGSDIANGWCGFIDGAIESGMGAALDAASLLAGGRP	not soluble
MRKLTLPKDFLWGGAVAAHQVEGGWNKDGKGPSICDVLTGGAHGVPREITQNVVAGKYYPNHEAVDFYGHYKEDIRLFAEMGFKCFRTSIAWTRIFPNGDESQPNEAGLKFYDDMFDELLKYNIEPVITLSHFEMPLHLVQHYGGWTNRKVVDFFVRFAEVVFERYKHKVKYWMTFNEINNQRNWRAPLFGYCCSGVVYTEHENPEETMYQVLHHQFVASALAVKAARRINPQMKVGCMLAMVALYPFSCKPEDVMFAQESMRERYVFTDVQLRGYYPSYVLNEWERRGFNIKMEDGDLEVLREGTCDYLGFSYYMTNAVKAEGGSGDAISGFEGSVPNPYVKASDWGWQIDPVGLRYSLCELYERYQKPLFIVENGFGAYDKVEEDGSINDDYRIDYLRAHIEEMKKAVTYDGVDLMGYTPWGCIDCVSFTTGQYSKRYGFIYVNKHDDGTGDMSRSRKKSFNWYKEVIASNGEKL	not soluble
MIVAFENNVVCSDEKVRDYLLAHHADLKEDQDEDALCLVRLHKEEDIDGTDRVDLAGWREISRELYWTGEQMECNYSIIRFSRKTTSLQMSVVLSTCNQLEWLEKVLWGYEAQDTKNFELIIADDGSRKETYDMLQRITPQLSFQVKHVWHEDKGFRKCDILNKGILAAQADYLLFSDGDCIPRKDFVSTHLCLRRKGRFLSGGYHKLSMDLSKDITKDDILSGRCFDLQWMRGKGMPASFKNNKLTATGFKRWALNTFTPTKASWNGHNASGWLSDILAVNGFDERMQYGGQDREFGERLENYGIHGMQIRYSTVCLHLDHARGYKTKDSIQKNRNIRKHTRGAKVQWASLGIVKDELRGQSVKVNSYYDRYTREEEKLTSYKEKGGFYRHIYSLPCRWRRAKYHDKVVRAYQQDTDAPALSNHSGVIVSLTTFPPRISQLHLMLKSILWQTCPPEKIIVWLSEQEFPGRLNDLPEELKRLMAKGIAFRFVSENFRSHKKYHYVFREYPDSKVITVDDDLIYPRNTVERLLSLSYQYPDTVCGNVIRKIHMDGNSFSVYRKWTKVFTMPVNSSLQNVAIGCGGIYYPPHWYGEELFDWKIISEHCPSADDLWLKANELKRRVKVTGGGEFYPRPIELPQTQNNSLQKKNNGKTNLNDKQWKSLNELWKLDELYCINGK	not soluble
MNTDILIGAIAGDIIGSYYEFVPIKSIDFPLFNGSSSHFTDDTIMTIANADWLLTGDSLLGIMQDYGNRYHSSYGSMFYEWLRADNPQPYNSWGNGSAMRVSPIDWAFNTLEETLEAAKQSAEVTHNHPEGIKGAQATAACIYLARTGKSKQEIKEYVETTFGYNLNRTCDDIRPTYHFNESCQGTIPESIIAFLESTDYESAIRLTISLGGDADTMGAITGGIAEAYYKEIPQYIIDEVLKRLSEEFIDIMQRFYRMFISS	not soluble
MERYAAALEEVADGARQQERHYQLLSALQSLVKELPSSFQQRLSYTTLSDLALALLDGTVFEIVQGLLEIQHLTEKSLYNQRLRLQNEHRVLRQALRQKHQEAQQACRPHNLPVVQAAQQRELEAVEHRIREEQRAMDQKIILELDRKVADQQSTLEKAGVAGFYVTTNPQELMLQMNLLELIRKLQQRGCRAGNAALGLGGPWQSPAAQCDQKGSPVPP	soluble
MADIPLSGKPRTQVLRWQRQNWVAGLRWEEKQKSVRRAPVQRRGVLNVVLTVKQGKSRLTALGQIEAGWRHQKLYSLAALFSQQCTPNGYGVYQLDDGRQVFLATVKGMPSPMADVIGTPDQIIRARELFLSFNPAPEDGWTIPSSPEFPLSWNTLVGQVSSAQLRFARVAGVSNPLRPYGAGVLSVAALLGGAVWWSRLPEPPVAPVVQELPAPVQDVFKKTPEPVYLPHPWADMPVARHFLNRCQRWRAAVPVSLDRWRLERIRCSAEGLETVYQRQPGGTAAGFAERVKQVFKRTPVFNLVSGGNEGVVFIPWAKFTLQDETAPDAGTQLMQAVSWFQSRQVSFSLSLEHHHHHH	not soluble
GMSAGKTVVIALGGNAMLQAKEKGDYDTQRKNVEIAASEIYKIHKAGYKVVLTSGNGPQVGAIKLQNQAAAGVSPEMPLHVCGAMSQGFIGYMMSQAMDNVFCANNEPANCVTCVTQTLVDPKDQAFTNPTKPVGRFYTEQEAKDLMAANPGKILREDAGRGWRVVVPSPRPLEIVEYGVIKTLIDNNVLVICTNGGGIPCKRENKVISGVDAVIDKDLATSLLAKTLNSDYLMILTDVLNACINYKKPDERKLEEIKLSEILALEKDGHFAAGSMGPKVRAAIEFTQATGKMSIITSLSTAVDALNGKCGTRIIKD	soluble
VTNWWSGDKRYQRFIERLLSVFEGRVLELPAESHGNVAVMAFQSSPKEQNIDKLKKRADKLSNAYGLDFHRMLAGLKASNPNNGKHFHL	not soluble
